Data: the DeepSol protein solubility set

experiment: soluble on expression in E. coli; label from the status in PepcDB or PDB records

Sequence	soluble on expression in E. coli
MIALFSVLIAFLTPQANAVISGELNCTTYNGTAFVYTPSATACSNAISDSSCAALYPASDPATGYPAPGNDVERPFACYTTATPTPAPVVPDMRSAALKNCARTCGLCCKTADFDCPNVQFPRLTCSTITNEQCRSSVWRTIIATDCPSACGFCNQGGCVDGVMDCANDLSICNSVGMQEFVNQYCQRTCNRCSSSTAATGTGGSCGGRYIADSSTACAAWKLNGFCTNTFYTAAQRRSYCATTCSLC	not soluble
MGSDKIHHHHHHMKVAIVHYWFVGMRGGEKVIEALCELYPQADIFTHVFVPEAVSDRIRRHRVTTSFINSLPRASSMYKSYLPLMPLALEHLDLSGYDLVISSESGPAKGIIPPPDALHVCYCHTPMRYIWNMYHDYRNGAGRLTKLLMPPLAHYLRMWDVSTASRVDSFIANSATVADRVRRYYRRDSVVIHPPVDTAVFTPVPASELGDYYLMAGELVAYKRPDLAVQAFNQIGRKLVVIGGGEMLNELKRIAGPNVTVMGSQPFEVLRHHYMHCRALIFPGEEDFGMVPVEAMAAGRPVIAFGKGGATETVVPGLSGLFFQAQEVEQIRSAILQLDDIEIDPAKISSHAARFGKQAFFDGFRSHIDQLLAAKAQATARNRG	not soluble
MRRCPLCHSTQTHLLLQDKKRCFYICQTCWLTFADANSHLPPAAEKQRYGRSRIASKQRHLSQFILPLLTQIQQQQNGSLTGLNFGRVLDQTSLETIESAGHTFKQYDPFFAPDHETLKQEYDFICCYRVFEHFQYPIKEWSLLTRLLKPGGWLAISTPLLIDLEGFAKWHYKNNLTHVSFYQRQTFEYLASNSDFELLFAAKDLVLMQKTSLEHHHHHH	soluble
MSLSKTYVGSRVRQLRNERGFSQAALAQMLEISPSYLNQIEHDVRPLTVAVLLRITEVFGVDATFFASQDDTRLVAELREVTLDRDLDIAIDPHEVAEMVSAHPGLACAVVNLHRRYRITTAQLAAATEERFSDGSGRGSITMPHEEVRDYFYQRQNYLHALDTAAEDLTAQMRMHHGDLARELTRRLTEVHGVRINKRIDLGDTVLHRYDPATNTLEISSHLSPGQQVFKMAAELAYLEFGDLIDAMVTDGKFTSAESRTLARLGLANYFAAATVLPYRQFHDVAENFRYDVERLSAFYSVSYETIAHRLSTLQRPSMRGVPFTFVRVDRAGNMSKRQSATGFHFSSSGGTCPLWNVYETFANPGKILVQIAQMPDGRNYLWVARTVELRAARYGQPGKTFAIGLGCELRHAHRLVYSEGLDLSGDPNTAATPIGAGCRVCERDNCPQRAFPALGRALDLDEHRSTVSPYLVKQEGHHHHHH	soluble
SSNQTPYIGSKISLISKLDIRYEGILYTVDTNDSTIALAKVRSFGTEKRPTANPVAARDDVYEYIIFKASDIKDLIVCDTPKMANIGGGLPYDPAIISVSSRSAPASDGAPAASAGSSRAGTPSRNSPLGQIIQNQRPGRGGYQQNFQANRGYNNYRGGFAGGYNNQRGHNNYGVPRVNHREKLKFESDFDFEKANEKFQEVLVDNLEKLNIEDKAEPEVEEKKDAAFYDKKTSFFDNISCESLEKAEGKTGRPDWKKERETNQETFGHNAVRSLNYRRGFGGRGRGGNRGYGGYNNGYQHQHQHRGGYNGGYRQNNGGYRRGGYAPRDNQGNTAAAAEQ	not soluble
MATLLEQLSTMTVVVADTGDLDAIRKFTPRDATTNPSLILAAAQIPAYQSLIDEALHSSRQLLGNSAAVEEVVHEALDEICVIFGKEILKIVPGRVSTEVDARLSFNTEATIAKAHKLIGLYNDAGITNDRVLIKIASTWEGIKAAEVLEKDGIHCNLTLLFGFSQAVACAEAGVTLISPFVGRILDWYKASTGRDSYAGPEDPGVISVTKIFNYFKTYDYKTEIMGASFRNLDEIIELAGCDLLTISPKLLDQLGSTEAPLKRKLDAVNPVAAESQIHVDKESFESMMRADRMAFEKLDEGIRGFSKAIETLEAQLAHRLAVLEGGAAFCHVVQEIFMLNDLDGDGCITREEWLGSDAVFDALDHDHDGRLLQEDVRSGLGAALALTTA	not soluble
MKLVLFDCDGTLVDSAGLIHAVMSETFADFGKPRPDISETKAIIGLTLDIAIARMLGRAHVDDEAAAMALRYKENYHPLRERFENATPLFDGIASLIDMLSKRDDVLIGAVTGKGRRGLTQILETHGFADHFIVSRTADDCPSKPHPAMVMECCHETGMVPADTIVIGDAIYDMQMAKAAGAKAIGVAWGYASVEDLWKAGADAVVNHPNDIPAYVPADITE	not soluble
MVMSQKTLFTKSALAVAVAIISTQAWSAGFQLNEFSSSGLGRAYSGEGAIADDAGNVSRNPALITMFDRPTFSAGAVYIDPDVNISGTSPSRRTLDADNIAPTAWVPNVHFVAPINDQFGWGASITSNYGLATEFNDTYAGGSVGGTTDLETMNLNLSGAYRLNEAWSFGLGFDAVYARAKIERFAGDLGQLVAAQNPALAPVAGQIPSDTKIAHLNGNQWGFGWNAGILYELDKNNRYALTYRSEVKIDFKGNYSSDLPIAINRFNLPIPTATGGATQSGYLTLNLPEMWEVSGYNRVAPQWAIHYSLAYTSWSQFQELKAKSTAGDTLFEKHEGFKDAYRIALGTTYYYDDNWTFRTGIAFDDSPVPAQNRSISIPDQDRFWLSAGTTYAFNKDASVDVGVSYMHGQSVKINEGPYQFESEGKAWLFGTNFNYAF	not soluble
MTARPYEPPPDYPMIEQRWPTTVRNSSIHPHVSSAHPSYRSHSIDAAVNRSSSACFHSPHRPSFPSRGLQKYDYPICGVSPSRHLSYNHFYNQSAAEIEEMLRTRQFPEIAGIYGNDEQPSLRRFTRYNQSINSRAVPPPAPPNPPKMEKHMSHDTSGRGSIFSKSSKKPLFFMGNWTFRDRNKSARPSISEALREERPQSMNLSDIKPATRSKSGEVLGPRNHIHIESITEFPRNIETRVPVKIERSSMVRRKPSNMGGSTEVSITSSSPSPSSSSSTSTGEFKTTITVDDDHQPTAVMRPKKESDTRGTLNNNRYSFQSCVQLRKSCPDLDSTAMSNMEQHRVSKKRTRRAKEKMSQAAWKRKTVKEWSLDDVLLWLQSAQMDDVAGLLIGYDLRGEDLLQWNDQTLAQLGVSNPEIRKKLLDDLSKIIENGPEPAQEDIRNNHRTLFDIVKQTSYDQVLAVETPLTTRDITVTHGRLGCLQITKVNGANLPLKEHDCLLEINERAGEQFKSALMLTKLISDSNGAAIRFVVLRRKTNLVVEESQQKESSSSGISSSPQTPTE	not soluble
NVHREWAANEKTAMESALGMSYAGKRALVCMKHVGMNVAADCFMNAAITGANGGMVIVAADDPSMHSSQNEQDSRVYGQFAMIPVMEPSNQQEAYDMTRLAFDLSERLGTPVMMRITTRLAHSRAGVVQTEPIGENELHLPEDKRQYVLLPGIAKKRYRILLDKQTDFVRESENSPYTEYVDAADKSKGIVACGIAYNYLMEAFKAQVPYPVLKVTQYPIPHKQMERLLNECGDIVVMEEGYPVVEQLLKGFPGLERIKGRLDGTLPRDGELNPDHVAKAFNIPVVEGEPIPDLVAARPPALCKGCSHRDVYDALNEVLTEYPNGRVFSDIGCYTLGALPPYEAINSCVDMGASITMAKGAADAGLFPAVSVIGDSTFTHSGITGLLDAINENSNITVIISDNESISMTGGQH	not soluble
MGHHHHHHSHNSARADVYPDGFKGHMLTKSEKNQLLAIASSLFVAFQLRAQHFQGNSRMPVIKPDIANWELSVKLHDKVHTVVASNNGSVFLVEVDGSKLNVTSTWNLFALIVCQR	not soluble
MSLDLHTHTIYSDGIGSVIDNVNMAEIRGLRLLGISDHIHFFTPSKFLKYVNEVRSIGREAEIPVLVGIEANITENGPDVTEDFAKHLDYVIASVHDWFGEGEVYRYIERIKLALMDENVTIIGHFGNVFPWIGYPTEEQIKEVLDVAEEYGKAFEISSRYRVPDLEFVKMCIKRGIKLVFASDAHRPEDVGRVDWSIKVFEKAGGKKEDLLFSEEGHHHHHH	soluble
MSANDRRDRRVRVAVVFGGRSNEHAISCVSAGSILRNLDSRRFDVIAVGITPAGSWVLTDANPDALTITNRELPQVKSGSGTELALPADPRRGGQLVSLPPGAGEVLESVDVVFPVLHGPYGEDGTIQGLLELAGVPYVGAGVLASAVGMDKEFTKKLLAADGLPVGAYAVLRPPRSTLHRQECERLGLPVFVKPARGGSSIGVSRVSSWDQLPAAVARARRHDPKVIVEAAISGRELECGVLEMPDGTLEASTLGEIRVAGVRGREDSFYDFATKYLDDAAELDVPAKVDDQVAEAIRQLAIRAFAAIDCRGLARVDFFLTDDGPVINEINTMPGFTTISMYPRMWAASGVDYPTLLATMIETTLARGVGLH	soluble
AVKLQESGPGILKPSQTLSLTCSFSGFSLTTYGMGVGWIRQSSGKGLEWLAHIWWDDDKYYNPSLKSRLTISKDTSRNQVFLKITSVATADTATYYCARRAPFYGNHAMDYWGQGTTVTVSSAKTTPPSVYPLAPGSAAQTNSMVTLGCLVKGYFPEPVTVTWNSGSLSSGVHTFPAVLQSDLYTLSSSVTVPSSPRPSETVTCNVAHPASSTKVDKKI	soluble
MGSDKIHHHHHHGCSRRDILDDYPVSGVEVRLDWSGVTEKLPEGVRIIFYPKDEKGRKIDTYLSVTGGEVKVPSGHYAVVIYNYDTETVLIRGEESYETIQAYTNFCKLGIAGTEKMVWGPDPLYVVNIDDLDIQNSEETLILKLKPKLVIRTYSFSIKVQGLSNVSNVIGSIGGMADHYFLGKAYAMCDDYPINIDLNVKAGKIEGVFTTFGLPEAIITRLEIKLPVMMNLMIIKVDNSVQEVKINITEAVQEPTGGGEGGEGEETKPPALVEVEIEDEIKVDDVETPPSGGGGIGGDVGDWDDETNVELPVG	not soluble
MGSDKIHHHHHHMLQNRERTYSLPQPFYSDDRLFEIDMQEIFHKEWLIAGMTCEIPTKGNFLTLQIGKNPILVVRGPDGAVNAFHNVCRHRGSRLCTAEKGKVAKLVCHYHQWTYELDGRLLYAGTEMGDDFDMKQFGLKPVHVKTAGGYIFISLAENPPAIDEFLATLKHYMEPYDMENTKVAVQTTLMEKANWKLVLENNRECYHCGGAHPELLKTLLEWDDVTDPRADQAFKDHVAASAAAWDAEKIPYAHASFGLRNRIVRMPLLKGTVSMTMDGKVGCKKLMGRIQNPELGSMRILHLPHSWNHCMGDHIIVFTVWPISAQETMVSTKWIVHKDAVEGVDYDVARMRQVWDATNDQDRRLAEENQRGINSTAYQPGPYSKTYEFGVVNFIDWYSARMLENLGAEPAPYLKGVAVNHE	not soluble
MAHHHHHHMVNFILNEAKDKAHEIEAKALEDFNIEKLRIVQKMKEKIRVEFQKKAKQMEIKRSIARSSAINKARLKKMCAKDQVFKEIYKISSDKLNDLYKDKDKYKNLIVDLIVQSLFYMQEPHVIVRCRDIDKAVVESSLNEAVSKYTDKLKKQFNVTKTVKIELDKSGNYLPPPPTPENEGNSCLGGVILTTPNRKINCDNTLDVRLKLAIEYCTPEIKRMFFENA	not soluble
